# From the supplement of paper PMC10126150
# ± gives the standard deviation of the averaged measurements.
# System: ATP
# Assay: switch fluorescence ratio, 500 uM ATP over buffer (Cy3 cluster intensity, sum of 5 cycles each) (fold (ratio)); higher = stronger signal-on switching upon ATP binding; sequences stand for … in TCGTCGGCAGCGTCAGATGTGTATAAGAGACAGTTTTTTTTTTTTTTTTTTTTTTTTT…TC
# Details: aptamer strand: ATP DNA aptamer (quencher-CACCTGGGGGAGTATTGCGGAGGAAGG + anchor), 100 nM annealed; ATP concentration: 500 uM
# In short: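 Cy3-labelled switching-strand clusters on a modified Illumina MiSeq flow-cell were annealed to 100 nM quencher-labelled ATP aptamer, imaged in selection buffer, then imaged after 15 min with 500 uM ATP at 22 °C. Five buffer/ATP cycles ran, with NaOH stripping and re-annealing between them. The fluorescence ratio is summed target-cycle over summed buffer-cycle Cy3 intensity per cluster, averaged per switch-domain sequence. Clusters outside 100-1000 RFU were excluded.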
# 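Note: ATP exposure 15 min at 22 °C before imaging.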
row,Sequence,switch fluorescence ratio
1,AATATATTTT,0.999 ± 0.047
2,AATATGCAGG,0.9657 ± 0.0034
3,AATATGGCCG,0.985 ± 0.037
4,AATATGTGTT,1.02 ± 0.031
5,AATATTATGA,1.01 ± 0.012
6,AATATTGAAC,0.99 ± 0.036
7,AATATTGTGG,0.974 ± 0.019
8,AATATTTAGA,0.9837 ± 0.0059
9,AATATTTTGA,1.02 ± 0.016
10,AATCAAGAGT,1.028 ± 0.0031
11,AATCACGGAG,1.019 ± 0.0061
12,AATCATAGTT,1 ± 0.014
13,AATCATGGTT,1 ± 0.028
14,AATCATGTTG,0.981 ± 0.033
15,AATCCAATGT,1.003 ± 0.0069
16,AATCCGGGGG,0.9661 ± 0.0022
17,AATCCGTGTG,1.01 ± 0.019
18,AATCGAGGGA,1 ± 0.027
19,AATCGAGTCC,1.107 ± 0.011
20,AATCGGAGCT,1.09 ± 0.026
21,AATCGGATAA,1.05 ± 0.019
22,AATCGGCACG,1.01 ± 0.02
23,AATCGGGGGA,1.01 ± 0.048
24,AATCGGGTGT,1.11 ± 0.047
25,AATCGGGTTG,1 ± 0.019

row,Sequence,switch fluorescence ratio
1,AATCGGTTCT,0.979 ± 0.05
2,AATCGGTTGG,0.966 ± 0.019
3,AATCGTCTGG,0.993 ± 0.019
4,AATCGTGGTA,1.01 ± 0.029
5,AATCTCGGCC,0.986 ± 0.015
6,AATCTGGGTA,0.991 ± 0.016
7,AATCTGTGAA,1 ± 0.012
8,AATCTTCTGT,0.982 ± 0.04
9,AATGAACGGG,0.981 ± 0.0089
10,AATGAACTCT,1.02 ± 0.034
11,AATGAATAGA,1.012 ± 0.008
12,AATGAATGGG,0.981 ± 0.018
13,AATGAATTTG,0.975 ± 0.043
14,AATGACTCGT,0.974 ± 0.01
15,AATGAGGCTT,0.996 ± 0.011
16,AATGAGGGAG,0.995 ± 0.01
17,AATGAGTCG,0.991 ± 0.028
18,AATGAGTGGG,1 ± 0.041
19,AATGAGTTTG,0.991 ± 0.019
20,AATGATGCCG,0.9864 ± 0.008
21,AATGATTTTG,0.9765 ± 0.0065
22,AATGCAACTT,1.01 ± 0.032
23,AATGCAGAGT,0.983 ± 0.012
24,AATGCCTTTG,1.02 ± 0.035
25,AATGCGGTTC,0.9709 ± 0.0026

row,Sequence,switch fluorescence ratio
1,AATGCTCGGA,0.981 ± 0.02
2,AATGCTCGTA,1.01 ± 0.023
3,AATGCTTGAG,1.05 ± 0.08
4,AATGGAAATC,1.003 ± 0.0086
5,AATGGAAGGC,1.09 ± 0.07
6,AATGGCATCG,1.02 ± 0.011
7,AATGGCGCGC,0.992 ± 0.017
8,AATGGCGGGT,0.996 ± 0.034
9,AATGGCTCGC,0.996 ± 0.061
10,AATGGGCACA,1 ± 0.042
11,AATGGGCTAG,0.993 ± 0.059
12,AATGGGGATC,0.984 ± 0.062
13,AATGGGGATT,1.01 ± 0.035
14,AATGGGGGTT,1.02 ± 0.037
15,AATGGGTCTA,0.985 ± 0.02
16,AATGGGTCTG,0.978 ± 0.052
17,AATGGGTTAT,0.992 ± 0.025
18,AATGGGTTCC,1.027 ± 0.0044
19,AATGGGTTCT,0.998 ± 0.079
20,AATGGGTTGT,1.02 ± 0.032
21,AATGGTACGA,1 ± 0.035
22,AATGGTCATG,0.993 ± 0.075
23,AATGGTGCGC,0.984 ± 0.017
24,AATGGTGTAA,0.99259 ± 0.00066
25,AATGGTTAAG,1 ± 0.054

row,Sequence,switch fluorescence ratio
1,AATGGTTTTG,0.9921 ± 0.0034
2,AATGTCGCTG,1.003 ± 0.0018
3,AATGTCTAGA,0.975 ± 0.023
4,AATGTCTTTG,0.984 ± 0.013
5,AATGTGAGGG,0.9772 ± 0.0092
6,AATGTGCATA,0.988 ± 0.011
7,AATGTGCCCA,0.9775 ± 0.007
8,AATGTGCCGG,1.01 ± 0.019
9,AATGTGGGGG,0.996 ± 0.018
10,AATGTGTATG,0.991 ± 0.033
11,AATGTTAGAA,0.99 ± 0.05
12,AATGTTTCGG,0.977 ± 0.022
13,AATGTTTGAC,0.977 ± 0.038
14,AATGTTTGCT,1 ± 0.018
15,AATTAAGAGG,1 ± 0.011
16,AATTAATGAT,0.981 ± 0.029
17,AATTACCAAA,1.01 ± 0.072
18,AATTACCGGT,0.979 ± 0.045
19,AATTAGAAGC,0.9962 ± 0.0075
20,AATTAGAGGG,0.984 ± 0.046
21,AATTAGTGTT,0.99 ± 0.02
22,AATTAGTTGG,0.9923 ± 0.0071
23,AATTAGTTGT,0.9918 ± 0.0084
24,AATTATAAGA,0.996 ± 0.027
25,AATTATCTCG,1.01 ± 0.018

row,Sequence,switch fluorescence ratio
1,AATTATTGAG,1.02 ± 0.038
2,AATTCAGGCA,0.98668 ± 0.00049
3,AATTCAGTGT,1.01 ± 0.025
4,AATTCATGTA,0.9886 ± 0.0064
5,AATTCCGGTC,1.093 ± 0.0066
6,AATTCCTATG,1.04 ± 0.05
7,AATTCTAAAC,0.9881 ± 0.0038
8,AATTCTGAGG,0.977 ± 0.025
9,AATTGAAGAT,1.03 ± 0.039
10,AATTGACTGT,1.07 ± 0.025
11,AATTGAGGCG,1.02 ± 0.089
12,AATTGCACCT,1.22 ± 0.05
13,AATTGCGTGG,0.988 ± 0.017
14,AATTGCTTTC,1.06 ± 0.013
15,AATTGGGGCG,0.969 ± 0.025
16,AATTGGGGGC,0.98 ± 0.022
17,AATTGGGGTG,1.06 ± 0.011
18,AATTGGTAGC,0.966 ± 0.015
19,AATTGGTAGG,1 ± 0.072
20,AATTGGTGAA,1.01 ± 0.014
21,AATTGTACGG,1.04 ± 0.013
22,AATTGTGGCT,1 ± 0.025
23,AATTGTGGGG,0.983 ± 0.057
24,AATTGTGTAT,0.973 ± 0.026
25,AATTGTTGGC,0.999 ± 0.035

row,Sequence,switch fluorescence ratio
1,AATTTACAGC,1.03 ± 0.042
2,AATTTACGAA,1.01 ± 0.019
3,AATTTACGGA,1.06 ± 0.037
4,AATTTAGCCG,0.977 ± 0.077
5,AATTTAGGGG,0.989 ± 0.03
6,AATTTATCAG,1.03 ± 0.039
7,AATTTATTGT,1.003 ± 0.0013
8,AATTTCAAGG,1 ± 0.048
9,AATTTCACCA,0.999 ± 0.013
10,AATTTCGGAC,1.07 ± 0.071
11,AATTTCGGAG,1.02 ± 0.026
12,AATTTGAGGG,0.979 ± 0.016
13,AATTTGATC,1.03 ± 0.021
14,AATTTGCATG,0.978 ± 0.013
15,AATTTGCGGG,0.98 ± 0.024
16,AATTTGCTTT,0.986 ± 0.036
17,AATTTGGCAT,1.012 ± 0.0063
18,AATTTGGCCT,1.05 ± 0.035
19,AATTTGGGGA,0.968 ± 0.013
20,AATTTGTAGT,1.03 ± 0.025
21,AATTTGTGTG,0.99 ± 0.034
22,AATTTGTTTT,1.02 ± 0.028
23,AATTTTAGCC,0.987 ± 0.011
24,AATTTTATTT,1.03 ± 0.062
25,AATTTTGCTT,1.01 ± 0.015

row,Sequence,switch fluorescence ratio
1,AATTTTGGCT,0.964 ± 0.03
2,AATTTTTTGG,1 ± 0.046
3,ACAAAGGAGC,1 ± 0.022
4,ACAAAGTAAA,1.01 ± 0.035
5,ACAAATGGGA,1.02 ± 0.044
6,ACAACAGGGG,2.91 ± 0.65
7,ACAACCGTTT,1.02 ± 0.027
8,ACAACTTTTT,1.02 ± 0.044
9,ACAAGAATTA,1.01 ± 0.055
10,ACAAGGGCGG,1.01 ± 0.015
11,ACAAGTAATA,1.06 ± 0.057
12,ACAAGTATTA,1.017 ± 0.0051
13,ACAAGTGAGG,1.02 ± 0.023
14,ACAAGTTTTG,1.04 ± 0.0022
15,ACAATATTTT,1.02 ± 0.02
16,ACAATCTTTA,0.994 ± 0.03
17,ACAATTGTCG,1.028 ± 0.01
18,ACACAACTGT,1.14 ± 0.077
19,ACACAAGGCT,1.03 ± 0.037
20,ACACACTCAA,1.28 ± 0.029
21,ACACAGAGAG,1.02 ± 0.033
22,ACACAGAGTT,1.03 ± 0.014
23,ACACAGGGGG,1.0997 ± 0.00043
24,ACACAGTATT,1.0263 ± 0.00076
25,ACACATAGAC,1.17 ± 0.051

row,Sequence,switch fluorescence ratio
1,ACACATTTTT,1.011 ± 0.01
2,ACACCAGCTA,0.9876 ± 0.0061
3,ACACCGGGTC,1.21 ± 0.071
4,ACACGGGGAG,1.01 ± 0.044
5,ACACGGGGGT,1.01 ± 0.018
6,ACACGTAGTT,0.984 ± 0.021
7,ACACTATCAC,1.21 ± 0.049
8,ACACTTTTTT,1 ± 0.055
9,ACAGAACAGT,1.03 ± 0.016
10,ACAGAAGGGG,1.02 ± 0.012
11,ACAGACTGAT,1.1 ± 0.076
12,ACAGAGAAAT,1.03 ± 0.036
13,ACAGAGGGTT,1.03 ± 0.045
14,ACAGATTCTA,0.984 ± 0.05
15,ACAGCATGCC,0.997 ± 0.013
16,ACAGCATGTA,0.9589 ± 0.0093
17,ACAGCGGATG,1.028 ± 0.0095
18,ACAGCTAGTA,0.986 ± 0.019
19,ACAGCTCGAG,1 ± 0.02
20,ACAGCTGATG,0.977 ± 0.059
21,ACAGGAAGAG,1.05 ± 0.038
22,ACAGGACAGG,1.14 ± 0.014
23,ACAGGACCGT,1.11 ± 0.038
24,ACAGGAGGTG,1.13 ± 0.035
25,ACAGGAGTTC,0.968 ± 0.053
